Starred links: 1 amine or outer side, 2 acyl side, 3 side chain; linkers in the order of their positions; H or OH if unused. Non-standard residues stand in square brackets, D forms with d. Groups on a side chain read outwards from the residue. No end group written: not given here. *: point of attachment. C20 diacid = O=C(O)CCCCCCCCCCCCCCCCCCC(=O)*; C18 diacid = O=C(O)CCCCCCCCCCCCCCCCC(=O)*; αMePhe(2-F) = C[C@](N)(Cc1ccccc1F)C(=O)O; γGlu = O=C(O)[C@H](CCC(=O)[*:2])N[*:1]; αMeF = C[C@](N)(Cc1ccccc1)C(=O)O; 4Pal = N[C@@H](Cc1ccncc1)C(=O)O; AEEA = NCCOCCOCC(=O)O; Aib = CC(C)(N)C(=O)O
T1: human glucose-dependent insulinotropic polypeptide (GIP) receptor (human, UniProt P48546 22-466)
T1 construct: whole, on cells; Assayed as crude membranes of stably transfected CHO cells; also called hGIPR; human GIP receptor
T1 sequence (looked up): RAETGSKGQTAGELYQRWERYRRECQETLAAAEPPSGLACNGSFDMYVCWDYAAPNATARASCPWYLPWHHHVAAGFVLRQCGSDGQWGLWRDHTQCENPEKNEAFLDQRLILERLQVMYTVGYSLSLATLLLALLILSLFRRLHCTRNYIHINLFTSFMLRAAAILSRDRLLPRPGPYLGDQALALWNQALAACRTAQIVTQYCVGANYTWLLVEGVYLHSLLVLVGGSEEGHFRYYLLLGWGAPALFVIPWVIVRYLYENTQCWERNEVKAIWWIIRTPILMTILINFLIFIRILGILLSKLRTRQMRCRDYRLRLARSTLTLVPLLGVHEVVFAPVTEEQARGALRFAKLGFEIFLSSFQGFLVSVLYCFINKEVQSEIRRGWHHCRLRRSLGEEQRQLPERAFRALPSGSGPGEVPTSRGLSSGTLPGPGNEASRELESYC

B1: Example 18 (peptide)
peptide: YXEGTFISDYSILLDKKAQXDFVNXLLAQGPSSGAPPPS
modifications: D-Ala2; K17((2-[2-(2-Amino-ethoxy)-ethoxy]-acetyl)2-(γ-Glu)-CO-(CH2)16-CO2H); Aib20; 4-Pal25; C-terminal amide
B2: Example 12 (peptide)
peptide: Y[dA]EGTFISDYSILLDKK([AEEA-AEEA-γGlu-C20 diacid])AQQDFVNWLLAGGPSSGAPPPS-NH2
modifications: N-terminus assumed
SMILES: CC[C@H](C)[C@H](NC(=O)[C@H](CO)NC(=O)[C@H](Cc1ccc(O)cc1)NC(=O)[C@H](CC(=O)O)NC(=O)[C@H](CO)NC(=O)[C@@H](NC(=O)[C@H](Cc1ccccc1)NC(=O)[C@@H](NC(=O)CNC(=O)[C@H](CCC(=O)O)NC(=O)[C@@H](C)NC(=O)[C@@H](N)Cc1ccc(O)cc1)[C@@H](C)O)[C@@H](C)CC)C(=O)N[C@@H](CC(C)C)C(=O)N[C@@H](CC(C)C)C(=O)N[C@@H](CC(=O)O)C(=O)N[C@@H](CCCCN)C(=O)N[C@@H](CCCCNC(=O)COCCOCCNC(=O)COCCOCCNC(=O)CC[C@H](NC(=O)CCCCCCCCCCCCCCCCCCC(=O)O)C(=O)O)C(=O)N[C@@H](C)C(=O)N[C@@H](CCC(N)=O)C(=O)N[C@@H](CCC(N)=O)C(=O)N[C@@H](CC(=O)O)C(=O)N[C@@H](Cc1ccccc1)C(=O)N[C@H](C(=O)N[C@@H](CC(N)=O)C(=O)N[C@@H](Cc1c[nH]c2ccccc12)C(=O)N[C@@H](CC(C)C)C(=O)N[C@@H](CC(C)C)C(=O)N[C@@H](C)C(=O)NCC(=O)NCC(=O)N1CCC[C@H]1C(=O)N[C@@H](CO)C(=O)N[C@@H](CO)C(=O)NCC(=O)N[C@@H](C)C(=O)N1CCC[C@H]1C(=O)N1CCC[C@H]1C(=O)N1CCC[C@H]1C(=O)N[C@@H](CO)C(N)=O)C(C)C
B3: Example 39 (peptide)
peptide: Y[Aib]EGT[αMePhe(2-F)]ISDYSIALDKK([AEEA-AEEA-γGlu-C20 diacid])HQ[Aib]DFVE[4Pal]LLEGGPSSGAPPPS-NH2
modifications: N-terminus assumed
SMILES: CC[C@H](C)[C@H](NC(=O)[C@H](CO)NC(=O)[C@H](Cc1ccc(O)cc1)NC(=O)[C@H](CC(=O)O)NC(=O)[C@H](CO)NC(=O)[C@@H](NC(=O)[C@](C)(Cc1ccccc1F)NC(=O)[C@@H](NC(=O)CNC(=O)[C@H](CCC(=O)O)NC(=O)C(C)(C)NC(=O)[C@@H](N)Cc1ccc(O)cc1)[C@@H](C)O)[C@@H](C)CC)C(=O)N[C@@H](C)C(=O)N[C@@H](CC(C)C)C(=O)N[C@@H](CC(=O)O)C(=O)N[C@@H](CCCCN)C(=O)N[C@@H](CCCCNC(=O)COCCOCCNC(=O)COCCOCCNC(=O)CC[C@H](NC(=O)CCCCCCCCCCCCCCCCCCC(=O)O)C(=O)O)C(=O)N[C@@H](Cc1c[nH]cn1)C(=O)N[C@@H](CCC(N)=O)C(=O)NC(C)(C)C(=O)N[C@@H](CC(=O)O)C(=O)N[C@@H](Cc1ccccc1)C(=O)N[C@H](C(=O)N[C@@H](CCC(=O)O)C(=O)N[C@@H](Cc1ccncc1)C(=O)N[C@@H](CC(C)C)C(=O)N[C@@H](CC(C)C)C(=O)N[C@@H](CCC(=O)O)C(=O)NCC(=O)NCC(=O)N1CCC[C@H]1C(=O)N[C@@H](CO)C(=O)N[C@@H](CO)C(=O)NCC(=O)N[C@@H](C)C(=O)N1CCC[C@H]1C(=O)N1CCC[C@H]1C(=O)N1CCC[C@H]1C(=O)N[C@@H](CO)C(N)=O)C(C)C
B4: Example 38 (peptide)
peptide: Y[Aib]EGT[αMePhe(2-F)]ISDYSIALDKK([AEEA-AEEA-γGlu-C20 diacid])HQ[Aib]DFVE[4Pal]LLETGPSSGAPPPS-NH2
modifications: N-terminus assumed
SMILES: CC[C@H](C)[C@H](NC(=O)[C@H](CO)NC(=O)[C@H](Cc1ccc(O)cc1)NC(=O)[C@H](CC(=O)O)NC(=O)[C@H](CO)NC(=O)[C@@H](NC(=O)[C@](C)(Cc1ccccc1F)NC(=O)[C@@H](NC(=O)CNC(=O)[C@H](CCC(=O)O)NC(=O)C(C)(C)NC(=O)[C@@H](N)Cc1ccc(O)cc1)[C@@H](C)O)[C@@H](C)CC)C(=O)N[C@@H](C)C(=O)N[C@@H](CC(C)C)C(=O)N[C@@H](CC(=O)O)C(=O)N[C@@H](CCCCN)C(=O)N[C@@H](CCCCNC(=O)COCCOCCNC(=O)COCCOCCNC(=O)CC[C@H](NC(=O)CCCCCCCCCCCCCCCCCCC(=O)O)C(=O)O)C(=O)N[C@@H](Cc1c[nH]cn1)C(=O)N[C@@H](CCC(N)=O)C(=O)NC(C)(C)C(=O)N[C@@H](CC(=O)O)C(=O)N[C@@H](Cc1ccccc1)C(=O)N[C@H](C(=O)N[C@@H](CCC(=O)O)C(=O)N[C@@H](Cc1ccncc1)C(=O)N[C@@H](CC(C)C)C(=O)N[C@@H](CC(C)C)C(=O)N[C@@H](CCC(=O)O)C(=O)N[C@H](C(=O)NCC(=O)N1CCC[C@H]1C(=O)N[C@@H](CO)C(=O)N[C@@H](CO)C(=O)NCC(=O)N[C@@H](C)C(=O)N1CCC[C@H]1C(=O)N1CCC[C@H]1C(=O)N1CCC[C@H]1C(=O)N[C@@H](CO)C(N)=O)[C@@H](C)O)C(C)C
B5: Example 23 (peptide)
peptide: Y[Aib]EGT[αMeF]ISDYSIALDKK([AEEA-AEEA-γGlu-C18 diacid])HQ[Aib]DFVE[4Pal]LLAGGPSSGAPPPS-NH2
modifications: N-terminus assumed
SMILES: CC[C@H](C)[C@H](NC(=O)[C@H](CO)NC(=O)[C@H](Cc1ccc(O)cc1)NC(=O)[C@H](CC(=O)O)NC(=O)[C@H](CO)NC(=O)[C@@H](NC(=O)[C@](C)(Cc1ccccc1)NC(=O)[C@@H](NC(=O)CNC(=O)[C@H](CCC(=O)O)NC(=O)C(C)(C)NC(=O)[C@@H](N)Cc1ccc(O)cc1)[C@@H](C)O)[C@@H](C)CC)C(=O)N[C@@H](C)C(=O)N[C@@H](CC(C)C)C(=O)N[C@@H](CC(=O)O)C(=O)N[C@@H](CCCCN)C(=O)N[C@@H](CCCCNC(=O)COCCOCCNC(=O)COCCOCCNC(=O)CC[C@H](NC(=O)CCCCCCCCCCCCCCCCC(=O)O)C(=O)O)C(=O)N[C@@H](Cc1c[nH]cn1)C(=O)N[C@@H](CCC(N)=O)C(=O)NC(C)(C)C(=O)N[C@@H](CC(=O)O)C(=O)N[C@@H](Cc1ccccc1)C(=O)N[C@H](C(=O)N[C@@H](CCC(=O)O)C(=O)N[C@@H](Cc1ccncc1)C(=O)N[C@@H](CC(C)C)C(=O)N[C@@H](CC(C)C)C(=O)N[C@@H](C)C(=O)NCC(=O)NCC(=O)N1CCC[C@H]1C(=O)N[C@@H](CO)C(=O)N[C@@H](CO)C(=O)NCC(=O)N[C@@H](C)C(=O)N1CCC[C@H]1C(=O)N1CCC[C@H]1C(=O)N1CCC[C@H]1C(=O)N[C@@H](CO)C(N)=O)C(C)C

These binders were tested against T2, human glucagon receptor (human, UniProt P47871 26-477) (assay: SPA, displacement of [125I]-Gcg from hGcgR membranes, 0.1% bacitracin).
T2 construct: whole, on cells; Assayed as crude membranes of stably transfected HEK293 cells; also called hGcgR; GcgR
How it was run: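 Binding buffer: 25 mM HEPES pH 7.4, 2.5 mM CaCl₂, 1 mM MgCl₂, 0.003% Tween-20, protease inhibitors without EDTA. Counted by scintillation after 12 h incubation/settling at room temperature. Four-parameter nonlinear fit; Kᵢ given as geometric mean ± SEM of independent replicates run on different days.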

T2 sequence (P47871 26-477): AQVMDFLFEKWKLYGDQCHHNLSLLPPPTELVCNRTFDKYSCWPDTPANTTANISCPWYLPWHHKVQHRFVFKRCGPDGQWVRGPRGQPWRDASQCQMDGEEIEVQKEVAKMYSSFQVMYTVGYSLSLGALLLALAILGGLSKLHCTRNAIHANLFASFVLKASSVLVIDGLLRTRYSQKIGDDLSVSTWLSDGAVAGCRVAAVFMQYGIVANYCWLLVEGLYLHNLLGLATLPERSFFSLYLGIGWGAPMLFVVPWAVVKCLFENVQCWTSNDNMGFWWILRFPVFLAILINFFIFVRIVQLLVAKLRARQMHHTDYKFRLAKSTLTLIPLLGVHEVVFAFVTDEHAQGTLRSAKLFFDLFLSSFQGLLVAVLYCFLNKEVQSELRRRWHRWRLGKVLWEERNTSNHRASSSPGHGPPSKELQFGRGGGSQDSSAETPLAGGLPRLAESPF

Binder	Ki
B1	463 nM
B2	134 nM
B3	76 nM
B4	182 nM
B5	323 nM

These binders were tested against T1, human glucose-dependent insulinotropic … (assay: SPA, displacement of [125I]-GIP from hGIPR membranes, 0.1% bacitracin).

Binder	Ki
B1	0.0331 nM
B2	0.0876 nM
B3	0.0444 nM
B4	0.0588 nM
B5	0.0341 nM

These binders were tested against T3, human GLP-1 receptor (human, UniProt P43220 24-463) (assay: SPA, displacement of [125I]-GLP-1 from hGLP-1R membranes, 0.1% bacitracin).
T3 construct: whole, on cells; Assayed as crude membranes of stably transfected HEK293 cells; also called hGLP1R; hGLP-1R
How it was run: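 Binding buffer: 25 mM HEPES pH 7.4, 2.5 mM CaCl₂, 1 mM MgCl₂, 0.1% bacitracin, 0.003% Tween-20, protease inhibitors without EDTA. Four-parameter nonlinear regression; Kᵢ given as geometric mean ± SEM, n = independent replicates run on different days.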

Binder	Ki
B1	158 nM
B2	46.8 nM
B3	235 nM
B4	776 nM
B5	251 nM

Reference: patent US20210032299A1 (Eli Lilly, published 2021)
